Test results taken from publication PMC4052767.

Target: Hat1p/Hat2p/H4_(1-48) complex (yeast (Saccharomyces cerevisiae) | yeast) (UniProt Q12341)
Assay: ITC

Chain of Hat1p/Hat2p/H4_(1-48) complex (yeast (Saccharomyces cerevisiae) | yeast) (Q12341 1-320, chain 1 of 3): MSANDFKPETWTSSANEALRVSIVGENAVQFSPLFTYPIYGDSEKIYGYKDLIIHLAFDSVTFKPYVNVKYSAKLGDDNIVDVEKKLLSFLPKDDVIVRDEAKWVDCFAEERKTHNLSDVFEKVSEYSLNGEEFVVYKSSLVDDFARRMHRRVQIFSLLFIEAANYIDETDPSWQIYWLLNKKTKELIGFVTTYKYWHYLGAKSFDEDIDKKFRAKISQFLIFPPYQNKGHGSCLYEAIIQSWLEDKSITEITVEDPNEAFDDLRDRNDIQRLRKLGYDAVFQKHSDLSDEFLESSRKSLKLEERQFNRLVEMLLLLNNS
Chain of Hat1p/Hat2p/H4_(1-48) complex (yeast (Saccharomyces cerevisiae) | yeast) (P39984 whole entry, chain 2 of 3, further chain): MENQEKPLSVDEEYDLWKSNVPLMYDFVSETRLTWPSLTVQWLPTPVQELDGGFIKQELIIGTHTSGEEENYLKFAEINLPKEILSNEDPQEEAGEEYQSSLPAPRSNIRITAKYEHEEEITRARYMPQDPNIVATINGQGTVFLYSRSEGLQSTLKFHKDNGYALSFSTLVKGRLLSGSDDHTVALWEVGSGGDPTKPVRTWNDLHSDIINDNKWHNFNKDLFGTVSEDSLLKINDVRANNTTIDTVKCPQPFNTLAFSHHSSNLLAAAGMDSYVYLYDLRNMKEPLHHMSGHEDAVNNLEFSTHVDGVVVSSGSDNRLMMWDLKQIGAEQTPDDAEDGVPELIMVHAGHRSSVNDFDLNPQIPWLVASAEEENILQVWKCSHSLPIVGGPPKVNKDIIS
Chain of Hat1p/Hat2p/H4_(1-48) complex (yeast (Saccharomyces cerevisiae) | yeast) (P02309 2-49, chain 3 of 3, further chain): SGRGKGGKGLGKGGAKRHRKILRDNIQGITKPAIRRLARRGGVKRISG

| Substance | Kd [µM] |
| --- | --- |
| H3 peptide (residues 1-15), unmodified (from UniProt P61830 2-16) | 0.34 |
| H3K4me3 peptide | 11.6 |
| H3K4me1 peptide | 2.48 |
| H3K4me2 peptide | 4.78 |
